Assay: soluble on expression in E. coli; label from the status in PepcDB or PDB records

Sequence	soluble on expression in E. coli
MGKVPEEVRSYLMEAHSLAGQWSLPNDRGDHTNSEAYDVNSVAIIGGGTMGKAMAICFGLAGIETFLVVRNEQRCKQELEVMYAREKSFKRLNDKRIEKINANLKITSDFHKLSNCDLIVESVIEDMKLKKELFANLENICKSTCIFGTNTSSLDLNEISSVLRDPSNLVGIHFFNPANVIRLVEIIYGSHTSSQAIATAFQACESIKKLPVLVGNCKSFVFNRLLHVYFDQSQKLMYEYGYLPHQIDKIITNFGFLMGPMTVADMNGFDVMEKLKKENGLEPNPIEKEMWRLKRYGRKTNKGFYKYDDKTQRKENDTEMEQIIRRVSQNAKSNIQIINDQDVINFMLYPTVNEGYRCIEEGVISNESLIDIMFILGFGWPIHSGGPMRFGKTEGLDKIANMLVHWSSLEPKESAYIVADALKTANNKLMSSKL	soluble
MGLFDRIKRVVSANLNDLVNKAEDPEKMLEQAILEMQEDLVQLRQGVAQAIAAQKRTEKQYSDAQNEINKWQRNAQLALQKGDENLARQALERKKTYTETGTALKTSLDQQSTQVETLKRNLIQLESKISEAKTKKEMLKARITTAKAQEQLEGMVRGMNSSSAMAAFERMEEKVLMQEARAQSAAELAGADLETQFARLESGSDVDDELAALKASLAPAPEQNLLPPQQQEQQSTAPKSKEVVDSELDALRKQLDQL	not soluble
MGLLIEGRWHDQWYESGKDGAFQREQAQRRNWVTADGRPGPSGEGGFAAEAGRYHLYVSLACPWAHRTLILRKLKGLEQLIDVSVVSWLMRENGWTFDSAHGSSGDALDHFDFMHQRYTADTADYTGRVTVPVLWDKQQQRIVSNESAEIIRMFNSAFDGLTGNGLDFYPQPLRARIDELNARIYPALNNGVYRAGFATSQQAYETAFDDVFAELDALEALLDKQRYLAGEYLTEADVRLFTTLIRFDAVYHGHFKCNLRRIADYPNLSNWLRELYQWPGIAETVDFAHIKGHYYASHTTINPTGIVPKGPLQDFSRAHDRQRLSGQGVWCRGLEHHHHHH	not soluble
MGLLKALLGFDRRDIETLARSNEENRRRIEALEAALARLEERISSISQALGRDARSTESLQGVEKEGGRETEYEGHNGTVEEGMLEDEGIIISHLEKGDATPSELIRDTGLSKNRVYGVLKRLVERGIVEKRRDGRRVVYSLRRVEAQADAPG	not soluble
MGMIQLQNPSHPTGLLCKANQMRLAGTLCDVVIMVDSQEFHAHRTVLACTSKMFEILFHRNSQHYTLDFLSPKTFQQILEYAYTATLQAKAEDLDDLLYAAEILEIEYLEEQCLKMLETIQ	soluble
MGNAAAYQRYRRPDCATEIDFSTENHSGREKIMSESLSWMQTGDTLALSGELDQDVLLPLWEMREEAVKGITCIDLSRVSRVDTGGLALLLHLIDLAKKQGNNVTLQGVNDKVYTLAKLYNLPADVLPR	not soluble
MGNCLFGGLGDEEEDLLIKVIKSDGGVLEFYSPVTAGFVSHGFSGHALFSAVDLLWKPLAHDHLLVPGQSYYLFPNIVSDELKTFVGSCHVRSNSESLSAITPYRMSLDYNHRVLKRSYTDVFSRNSHIRTRQKEKKTRRRRTSSKGAIWKVNLIINTEELLQILSEDGRTNELIESVRAVAKGETSSITSSSSENFLSVVQT	soluble
MGNDKRSQIFTLSRYAGILRRCLKENAMSAQKPGLHPRNRHHSRYDLATLCQVNPELRQFLTLTPAGEQSVDFANPLAVKALNKALLAHFYAVANWDIPDGFLCPPVPGRADYIHHLADLLAEASGTIPANASILDIGVGANCIYPLIGVHEYGWRFTGSETSSQALSSAQAIISSNPGLNRAIRLRRQKESGAIFNGIIHKNEQYDATLCNPPFHDSAAAARAGSERKRRNLGLNKDDALNFGGQQQELWCEGGEVTFIKKMIEESKGFAKQVMWFTSLVSRGENLPPLYRALTDVGAVKVVKKEMAQGQKQSRFIAWTFMNDEQRRRFVNRQRLEHHHHHH	not soluble
MGQDTDMLNTYQQLVRTPSVRPGQDVRLQAPGTRTGLLKLLSTVSQDKQGCLGSGDGVPNQDLQQRSQSSRQTAKKDRKPRGQSKKGQGSEESEDHFPLLPRKPSFPFQWAWESIATDVRAVLQPSSPTPGHQALPMPSSFSQRQSRRKSTANLPEAHGCCWKTEAQNLKARQQLGAWGGVSIPTGKGELGSEPPSGLQLPGRRPGSGSASDKQVQLQSLGAEEAERGLSSGVLPQRPRRGSISEEEQFSEATEEAEEGEHRTPCRRRAGCQRKGQISGEEASDEGEVQGQSQGSSPSFNNLRRRQWRKTRAKELQGPWDLEKLHRQLQRDLDCGPQKLPWKTLRAAFQASKRNGKAYASGYDETFVSANLPNRTFHKRQEATRSLLQAWERQRQEERQQAELRRARTQHVQRQVAHCLAAYAPRGSRGPGAAQRKLEELRRQERQRFAEYQAELQGIQHRVQARPFLFQQAMQANARLTVTRRFSQVLSALGLDEEQLLSEAGKVDREGTPRKPRSHRSVGVRMEHSPQRPPRTEPTGSQPDRHYNPSLDPECSP	not soluble
MGQKKYVELSKDIFIFSYLCGGINFTDIANLTQENIVNGRLHYIRQKTGKLIKIGIPQEAMQIIKKYTDESNGYLFPILNVKVHKTALQKQNRIHKIRGKVNDILKTLGKRLGIEANITTYVARHSFASVLKKSGVNIALISEALGHSDLATTQIYLDSFDNEQVDEAMKNLLEHHHHHH	soluble
MGQLIDGVWHDTWYDTKSTGGKFQRSASAFRNWLTADGAPGPTGTGGFIAEKDRYHLYVSLACPWAHRTLIMRKLKGLEPFISVSVVNPLMLENGWTFDDSFPGATGDTLYQNEFLYQLYLHADPHYSGRVTVPVLWDKKNHTIVSNESAEIIRMFNTAFDALGAKAGDYYPPALQTKIDELNGWIYDTVNNGVYKAGFATSQEAYDEAVAKVFESLARLEQILGQHRYLTGNQLTEADIRLWTTLVRFDPVYVTHFKCDKHRISDYLNLYGFLRDIYQMPGIAETVNFDHIRNHYFRSHKTINPTGIISIGPWQDLDEPHGRDVRFGLEHHHHHH	soluble
MGREALGKCPVCNNETTITRITCEKCNTTIEGRFDLCKFCRLTPEQKLFVDVFIKCRGNIKEVEKELGVSYPTVKNKLEDVANALGHKSEEAPVEETNRKEILDKLYEGEISVDEALELLKG	not soluble
MGRGRKHTDAAAEQRELAIKANIVDEPFSVSAIDRSIRKAEWVKTETDQILSGRCPETDGTWLGISTRGRVAFLVEAGTINRDRFNGAESRTLEFLESNESPEDFAKSSAADYIRNKNTAAFHLIVADIASNSMLYISKPRFSDYGIVYTEPVGPGVHTLSSAGLDSDVGYRDLRMRHSFCEMINRERLPPIRDIAEIMYDPVKAYESVLLSSIFFVDMKIGYEHYGTRITTALVVKRTKEVLFFERYREIFNDDWDDHDFAFTII	not soluble
MGRMIDGDWRTEADMNEHSDDGAFERDTTSFRHWVGDDVPPAAGRYHLYVSYACPWAHRTLLVRALLGLEDAISVSVVDPVRYDQGWTFDPEKPGCTPDHVFGGTHLRDVYTEADPEYTGRVTVPVLYDTDADTIVNNESEEIMRMLDVAFDDHAARDVDLYPEGYRDEVDRLIEDIYDPINNGVYRAGFADSQRAYDNAVDDLFEALAHYDDVLAEQRYLAGDVLTEADVAMFTTLYRFDEVYHTHFKCNRKRISDYDNLWPYLRELCQLPGVADTLYMEHVKQHYYRSHGHLNPKRLVPTGPNPAFFAPHDRDQLEHHHHHH	not soluble
MGRMSEKLGQDIKQSIFKVPPLIQKSDIDPEHCRVSAQLDDNVDDNIPLRVMLLLMDEVFDLKDRNQWLRRNIKNLLQQLIKATYGDTINRKIVDHVDNMTSPEQVSDYVKRFRDSYWPNGILAETPPRRDKNLRMRTRVAAKTTLLGIMPDELKHIIGADTTRKGILRVFEMFQHQPLNRRLVYVFLEGFLETLFPQYKFPELFEKLHSRSPRVLKYSHKLRSLQKR	not soluble
MGRQIPPDPVFGDVLVAKLINRVMWDGKKTIAQKIVYGAFDIIREKTKKDPLEVFRQAVENVKPVLEVRPRRVGGATYQVPIEVQEPRRTSLALRWIVEAARAKKGRPMKEKLAEEIIAAYNNTGTAIKKKEDTHRMAEANRAFAHYRW	soluble
MGRVFKKKGGAKREAEEEKQEELVMRKKLRKEEEPEPVEDVEEDEDVSDEDDEDIDDEEEDEDEQNIMDFDFEAYPPSEDDRDGIVNMLTQTFLRTDIDLKAMSEGIIAKAPHGVVLTQAYDDEETEEDYMAYGLCTTVPLNDNKDDAPKFIKDLFTYVLNRAKKGAPTEIYKKIEEIQVSGDGKSALFVNERLLNFPTIVVPQIFGSIREDLSGFETKYKTIIYIQKLRIVETDGSEAKVGASSNGSSGVAGKKKGKMGKAEKKRAAAAALANAEIEFDNPEDRVLFEIKEGKEIHFDYPVHMDVEPGSKFHSTEKDGKKWNPFRRLVIMDDKRFDAFLKKGSDGIII	not soluble
MGSDKIHHHHHHAAENLPIQNELFSEYFKKLNPTNYNTKMNRELYIFFKQMFNIDIVKDNIDNANFPTFEEVLGLLDLAEQRKEAFRNFGLENLNNRSDSIRFLRQYLILLMAEAIHNTPRTDNKYHKLLVENLLENDLLLDTTFISANYDIHIDNTVTGLRDKNDLPIMLDYGVEFTNFKEELNWRKPKEPLIKLYKIHGSLNWLYCPICNSVTLTPHEGGVMKLIENSSETKCLECGELTEPIIVPPTYFKNMSNIFLSNVWNETEKTLRDTDLLIFCGYSFPEADMHIKYMLKRVQTNRKKPPLKIMVFNNHSQKQRITLKKEEGRYKRFLGEDVIFTDNSFQDFSVNPLRFIKNI	not soluble
MGSDKIHHHHHHAATRLKRRKFPTINEEFYYNQLENGMTVFLIPKESFKETLAVMSSRFGSIDTNFTVNGKKKSYLAGIAHLLEHQLFEMNKQKDAAYEFTKLGAESNAYTTFDKTIYYFSTADNIKKNLDLLQEFTSQINFTDMSIEKEKKIITQEFNMYQDDSDDYLYQVILSKLYPQTSLAEDITGNRDSIDKLTKNNLEENFHYFYQPENLTLLVAGDFDVKRVYKDIVTTQRQLPDRPKFEIKRSPLKLLPITPTSSMQMDISISKLAVGFRFNFIKKKRKSLIKERLLLKLFFLLLFGWTSEHYQQWYEDRKIDDSFELKIEVSTSYQFVVILLDTKEPIAMSNKIGQTIKKFKTDTNLSASHLQTVKKELYGDFIRSLDSLEALSSQFIDNLWGEETYFDFPTVLQNIEIKDVLEFGEKITKEMQLTDFTLFPK	not soluble
MGSDKIHHHHHHAATSNKKNTIKLISTNNNIKIPVYDRQGKQINGFTVESGANVTVIGKPIIVQQKYRKDVFEGIKINGKTYASLGDGGYIPINATGVITSKGMKITRDTAVYNKNGKKLSTYRGHTATLKKDSIVKYGGATTYTIPVSYFNIGNGRYVRASYVQEYNGQTVLTLNYNTFVYNKKGKRINYDGQRKLMNGGVVTTNSKIREAKSSDQNYFYSSANYTDKNKLAFTTTKIKGQDYLSIGKGEYIKIANVKTANGMILFTKGPITITLPSDTTIYSSNFKETKKQIAAGKKVILDKTEIDNSLSDPQLYFRIKGTNELIYWGDLGEYPGVDHTAVYDPNYYSIYSFPLRQFME	not soluble
MGSDKIHHHHHHACEQNEDWVVNEPMQSFEENPEYAPLNTIPDWVSEKVTPKEYELWRTMSSRYEINYSFLKKDISEKRKKEIYDCINNICERIEKGQINKYEGFLNIADEDGTTLSDSQYFGRIATRSPEGGAEYKTNGCTLYTHSLGPYIKAAVTYKKSDDDVTITSSSVYTGSPYLGNDPSFSGASSVSYDKDKKLIAASCSGTLSFKDGSRKVEVTVQKTGFMIP	not soluble
